One block for each binder: values may come before it.
Legend:
[1] = target: T1, CD3-Fc; experiment: SPR, CD3-Fc immobilised on CM5 chip, 25 C
T1 construct: Immobilised on a CM5 chip at 1000 RU; also called CD3 target
Procedure: CD3-Fc was immobilized on a CM5 sensor chip at 1000 response units (RU) using ECD/NHS coupling methods. […] All samples were prepared at concentrations of 30 nM, 10 nM, 3 nM or 1 nM in HBS-EP+ runner buffer at 25° C.

[2] = target: T2, CD38-Fc (UniProt P28907 43-300); experiment: SPR, CD38-Fc immobilised on CM5 chip, 25 C
T2 construct: Immobilised on a CM5 chip at 200 RU; also called CD38 antigen target; not shown: Fc part
Procedure: (§1) CD38-Fc was immobilized on a CM5 sensor chip at 200 response units (RU) using ECD/NHS coupling. […] These bispecific compounds include a protease cleavage site within one of the linker regions. […] All samples were prepared at concentrations of 30 nM, 10 nM, 3 nM or 1 nM in HBS-EP+ runner buffer at 25° C.

[3] = target: T3, CD3 on cells (PBMC, primary patient samples); experiment: flow cytometry, PBMC treated 1 h with 10 ug/mL of the binder, dot plot CD38-PE against CD3-V450; the C-IgG panel prints 25%; the filing reads the figure as binding to CD3 and CD38
T3 construct: whole, on cells
Procedure: (§2) The CD3-CD38 compounds were then incubated with PBMCs to assess binding to CD3 and CD38 antigens presented on effector cells.

[4] = target: T2, CD38-Fc; experiment: SPR, CD38-Fc immobilised on CM5 chip, 25 C; ** = kd outside of detectable limits
Procedure: as §1

[5] = target: T4, CD38 on cells (Nomo-1, SKM-1, MM1S, THP-1, HL60, PBMC, primary patient samples) (UniProt P28907 1-300); experiment: flow cytometry, PBMC treated 1 h with 10 ug/mL of the binder, dot plot CD38-PE against CD3-V450; the C-IgG panel prints 48%; CD3+CD38+ quadrant of this panel: 0%; the filing reads the figure as binding to CD3 and CD38
T4 construct: whole, on cells
Procedure: as §2

B1: 3-38BN002 (5F1O) (bispecific antibody)
chain: EVQLVESGGGLVQPGRSLRLSCAASGFTFDDYTMHWVRQAPGKGLEWVSDISWNSGSIGYADSVKGRFTVSRDNAKNSLYLQMNSLRGEDTAIYYCAKDMSGYGHYGKYGMDVWGQGTTVTVSSASTKGPSVFPLAPSSKSTSGGTAALGCLVKDYFPEPVTVSWNSGALTSGVHTFPAVLQSSGLYSLSSVVTVPSSSLGTQTYICNVNHKPSNTKVDKKVEPKSCAASGGAGSDVQLQESGGGLVQAGHSLRLSCVGSGSRFDNYAMGWFRQAPGKEREFVAAISWSSGTTRYLDTVKGRFTISRDNAKSTVYLQMNSLKPEDTAVYYCAARYQPRYYDSGDMDGYEYDNWGQGTQVTVSSGAVPLSLYGAGGDIQMTQSPILLSASVGDRVTITCRASQSIRSYLNWYQQRTNGSPRLLIYAASSLQSGVPSRFSGSGSGTDFTLTINSLQPDDEADYYCQQTYSNPPITFGAGTRLEIKRTVAAPSVFIFPPSDEQLKSGTASVVCLLNNFYPREAKVQWKVDNALQSGNSQESVTEQDSKDSTYSLSSTLTLSKADYEKHKVYACEVTHQGLSSPVTKSFNRGEC
notes: Single chain with cleavable linker L2 (MMP-9 site); also called 38N002; CD3HC-L1-CD38nanobody (5F1O)-L2-CD3LC
Kd [1]: 530 nM
koff [1]: 0.0227 s⁻¹
kon [1]: 42900 M⁻¹ s⁻¹
Kd [2]: 0.772 nM
koff [2]: 0.000127 s⁻¹
kon [2]: 165000 M⁻¹ s⁻¹
CD3 (% of PBMC in the CD3-V450 positive, CD38-PE negative quadrant) [3]: 12%

B2: 3-38BN005 (5F1O) (bispecific antibody)
chain: EVQLVESGGGLVQPGRSLRLSCAASGFTFDDYTMHWVRQAPGKGLEWVSDISWNSGSIGYADSVKGRFTVSRDNAKNSLYLQMNSLRGEDTAIYYCAKDMSGYGHYGKYGMDVWGQGTTVTVSSASTKGPSVFPLAPSSKSTSGGTAALGCLVKDYFPEPVTVSWNSGALTSGVHTFPAVLQSSGLYSLSSVVTVPSSSLGTQTYICNVNHKPSNTKVDKKVEPKSCAASGGAGSDVQLQESGGGLVQAGHSLRLSCVGSGSRFDNYAMGWFRQAPGKEREFVAAISWSSGTTRYLDTVKGRFTISRDNAKSTVYLQMNSLKPEDTAVYYCAARYQPRYYDSGDMDGYEYDNWGQGTQVTVSSSSGASASAAGGSDIQMTQSPILLSASVGDRVTITCRASQSIRSYLNWYQQRTNGSPRLLIYAASSLQSGVPSRFSGSGSGTDFTLTINSLQPDDEADYYCQQTYSNPPITFGAGTRLEIKRTVAAPSVFIFPPSDEQLKSGTASVVCLLNNFYPREAKVQWKVDNALQSGNSQESVTEQDSKDSTYSLSSTLTLSKADYEKHKVYACEVTHQGLSSPVTKSFNRGEC
notes: Single chain with non-cleavable linker L2; also called CD3HC-L1-CD38nanobody (5F1O)-L2-CD3LC
kon [2]: 590000 M⁻¹ s⁻¹
koff [4]: < 1e-05 s⁻¹
CD3 (% of PBMC in the CD3-V450 positive, CD38-PE negative quadrant) [3]: 11%

B3: 3-38BN003 (5F21) (bispecific antibody)
chain: EVQLVESGGGLVQPGRSLRLSCAASGFTFDDYTMHWVRQAPGKGLEWVSDISWNSGSIGYADSVKGRFTVSRDNAKNSLYLQMNSLRGEDTAIYYCAKDMSGYGHYGKYGMDVWGQGTTVTVSSASTKGPSVFPLAPSSKSTSGGTAALGCLVKDYFPEPVTVSWNSGALTSGVHTFPAVLQSSGLYSLSSVVTVPSSSLGTQTYICNVNHKPSNTKVDKKVEPKSCAASGGAGSDVQLQESGGGSVQAGGSLTLSCTASGLLFRLASMGWYRQAPGKERELIATITVGGKTNYKDSVQGRFIITRDNTGDNTKSTVTLQMNRLKPEDTAVYYCNTASPAVGADTWGQGTRVTVSSGAVPLSLYGAGGDIQMTQSPILLSASVGDRVTITCRASQSIRSYLNWYQQRTNGSPRLLIYAASSLQSGVPSRFSGSGSGTDFTLTINSLQPDDEADYYCQQTYSNPPITFGAGTRLEIKRTVAAPSVFIFPPSDEQLKSGTASVVCLLNNFYPREAKVQWKVDNALQSGNSQESVTEQDSKDSTYSLSSTLTLSKADYEKHKVYACEVTHQGLSSPVTKSFNRGEC
notes: Single chain with cleavable linker L2 (MMP-9 site); also called 38N003; CD3HC-L1-CD38nanobody (5F21)-L2-CD3LC
Kd [1]: 522 nM
koff [1]: 0.0525 s⁻¹
kon [1]: 101000 M⁻¹ s⁻¹
Kd [2]: 0.478 nM
koff [2]: 6.84e-05 s⁻¹
kon [2]: 143000 M⁻¹ s⁻¹
CD3 (% of PBMC in the CD3-V450 positive, CD38-PE negative quadrant) [3]: 12%
CD38+ (% of PBMC in the CD38-PE positive, CD3-V450 negative quadrant) [5]: 15%

B5: 3-38BN001 (5F1K) (bispecific antibody)
chain: EVQLVESGGGLVQPGRSLRLSCAASGFTFDDYTMHWVRQAPGKGLEWVSDISWNSGSIGYADSVKGRFTVSRDNAKNSLYLQMNSLRGEDTAIYYCAKDMSGYGHYGKYGMDVWGQGTTVTVSSASTKGPSVFPLAPSSKSTSGGTAALGCLVKDYFPEPVTVSWNSGALTSGVHTFPAVLQSSGLYSLSSVVTVPSSSLGTQTYICNVNHKPSNTKVDKKVEPKSCAASGGAGSDVQLQESGGGLVQAGGSLRLSCTGSGRTFRNYPMAWFRQAPGKEREFVAGITWVGASTLYADFAKGRFTISRDNAKNTVYLQMNSLKPEDTAVYSCAAGRGIVAGRIPAEYADWGQGTQVTVSSGAVPLSLYGAGGDIQMTQSPILLSASVGDRVTITCRASQSIRSYLNWYQQRTNGSPRLLIYAASSLQSGVPSRFSGSGSGTDFTLTINSLQPDDEADYYCQQTYSNPPITFGAGTRLEIKRTVAAPSVFIFPPSDEQLKSGTASVVCLLNNFYPREAKVQWKVDNALQSGNSQESVTEQDSKDSTYSLSSTLTLSKADYEKHKVYACEVTHQGLSSPVTKSFNRGEC
notes: Single-chain anti-CD3 Fab heavy chain - linker L1 - anti-CD38 nanobody 5F1K - cleavable linker L2 (MMP-9 site) - anti-CD3 light chain; also called 3-38N001; CD3HC-L1-CD38nanobody (5F1K)-L2-CD3LC
Kd [2]: 0.946 nM
koff [2]: 0.000696 s⁻¹
kon [2]: 735000 M⁻¹ s⁻¹
CD3 (% of PBMC in the CD3-V450 positive, CD38-PE negative quadrant) [3]: 13%
CD38+ (% of PBMC in the CD38-PE positive, CD3-V450 negative quadrant) [5]: 1%

Continued by falling Kd [2], values first:

Kd [2]: 0.962 nM
koff [2]: 0.000711 s⁻¹
kon [2]: 740000 M⁻¹ s⁻¹
CD3 (% of PBMC in the CD3-V450 positive, CD38-PE negative quadrant) [3]: 11%
CD38+ (% of PBMC in the CD38-PE positive, CD3-V450 negative quadrant) [5]: 1%
B6: 3-38BN004 (5F1K) (bispecific antibody)
chain: EVQLVESGGGLVQPGRSLRLSCAASGFTFDDYTMHWVRQAPGKGLEWVSDISWNSGSIGYADSVKGRFTVSRDNAKNSLYLQMNSLRGEDTAIYYCAKDMSGYGHYGKYGMDVWGQGTTVTVSSASTKGPSVFPLAPSSKSTSGGTAALGCLVKDYFPEPVTVSWNSGALTSGVHTFPAVLQSSGLYSLSSVVTVPSSSLGTQTYICNVNHKPSNTKVDKKVEPKSCAASGGAGSDVQLQESGGGLVQAGGSLRLSCTGSGRTFRNYPMAWFRQAPGKEREFVAGITWVGASTLYADFAKGRFTISRDNAKNTVYLQMNSLKPEDTAVYSCAAGRGIVAGRIPAEYADWGQGTQVTVSSSSGASASAAGGSDIQMTQSPILLSASVGDRVTITCRASQSIRSYLNWYQQRTNGSPRLLIYAASSLQSGVPSRFSGSGSGTDFTLTINSLQPDDEADYYCQQTYSNPPITFGAGTRLEIKRTVAAPSVFIFPPSDEQLKSGTASVVCLLNNFYPREAKVQWKVDNALQSGNSQESVTEQDSKDSTYSLSSTLTLSKADYEKHKVYACEVTHQGLSSPVTKSFNRGEC
notes: also called 3-38N004; CD38-CD3 BIONIC

Kd [2]: 0.473 nM
koff [2]: 7.33e-05 s⁻¹
kon [2]: 155000 M⁻¹ s⁻¹
CD3 (% of PBMC in the CD3-V450 positive, CD38-PE negative quadrant) [3]: 12%
CD38+ (% of PBMC in the CD38-PE positive, CD3-V450 negative quadrant) [5]: 11%
B4: 3-38BN006 (5F21) (bispecific antibody)
chain: EVQLVESGGGLVQPGRSLRLSCAASGFTFDDYTMHWVRQAPGKGLEWVSDISWNSGSIGYADSVKGRFTVSRDNAKNSLYLQMNSLRGEDTAIYYCAKDMSGYGHYGKYGMDVWGQGTTVTVSSASTKGPSVFPLAPSSKSTSGGTAALGCLVKDYFPEPVTVSWNSGALTSGVHTFPAVLQSSGLYSLSSVVTVPSSSLGTQTYICNVNHKPSNTKVDKKVEPKSCAASGGAGSDVQLQESGGGSVQAGGSLTLSCTASGLLFRLASMGWYRQAPGKERELIATITVGGKTNYKDSVQGRFIITRDNTGDNTKSTVTLQMNRLKPEDTAVYYCNTASPAVGADTWGQGTRVTVSSSSGASASAAGGSDIQMTQSPILLSASVGDRVTITCRASQSIRSYLNWYQQRTNGSPRLLIYAASSLQSGVPSRFSGSGSGTDFTLTINSLQPDDEADYYCQQTYSNPPITFGAGTRLEIKRTVAAPSVFIFPPSDEQLKSGTASVVCLLNNFYPREAKVQWKVDNALQSGNSQESVTEQDSKDSTYSLSSTLTLSKADYEKHKVYACEVTHQGLSSPVTKSFNRGEC
notes: Single chain with non-cleavable linker L2; also called 38N006; CD3HC-L1-CD38nanobody (5F21)-L2-CD3LC
